Entries after “also recorded” stand apart in the source; their conditions may differ.
T1: murine c-FMS (Mus musculus, UniProt P09581)
T1 construct: endogenous in cells; host or cells: primary bone marrow derived monocytes from wild-type C57BL6 mice
T1 sequence (P09581 20-977): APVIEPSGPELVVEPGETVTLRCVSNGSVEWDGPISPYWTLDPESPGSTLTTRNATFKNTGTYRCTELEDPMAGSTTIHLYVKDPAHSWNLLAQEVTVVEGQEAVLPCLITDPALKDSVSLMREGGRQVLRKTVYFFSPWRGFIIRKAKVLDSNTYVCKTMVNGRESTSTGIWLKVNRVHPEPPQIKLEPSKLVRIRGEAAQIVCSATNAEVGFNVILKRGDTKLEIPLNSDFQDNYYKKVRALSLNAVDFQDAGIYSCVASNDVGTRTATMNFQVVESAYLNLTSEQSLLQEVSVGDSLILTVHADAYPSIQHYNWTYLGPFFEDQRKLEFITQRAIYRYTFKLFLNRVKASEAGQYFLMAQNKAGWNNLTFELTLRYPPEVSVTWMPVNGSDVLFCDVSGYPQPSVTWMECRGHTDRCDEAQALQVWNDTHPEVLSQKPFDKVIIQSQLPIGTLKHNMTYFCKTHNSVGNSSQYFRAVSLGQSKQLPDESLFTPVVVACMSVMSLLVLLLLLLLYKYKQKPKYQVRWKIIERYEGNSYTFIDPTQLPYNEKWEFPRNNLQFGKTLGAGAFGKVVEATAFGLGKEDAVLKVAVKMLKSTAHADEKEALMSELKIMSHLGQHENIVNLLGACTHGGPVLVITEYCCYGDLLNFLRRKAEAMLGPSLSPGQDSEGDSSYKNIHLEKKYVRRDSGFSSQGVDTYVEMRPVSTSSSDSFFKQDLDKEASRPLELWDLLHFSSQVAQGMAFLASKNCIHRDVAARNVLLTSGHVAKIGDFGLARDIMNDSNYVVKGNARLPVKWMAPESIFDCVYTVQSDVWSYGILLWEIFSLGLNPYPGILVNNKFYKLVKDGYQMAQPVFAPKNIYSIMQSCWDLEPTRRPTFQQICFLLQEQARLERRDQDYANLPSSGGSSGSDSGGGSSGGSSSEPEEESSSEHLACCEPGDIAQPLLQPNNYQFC


Target: T1, murine c-FMS
Assay: c-FMS phosphorylation assay in BMMs (western blot)
Type: cell-based
Details: for c-FMS phosphorylation level: 0.5 nM murine M-CSFWT + 1 μM variant, versus control
Method: Phosphorylation assay—The experiment was performed on two cell types, BMMs and human peripheral blood CD14^+ monocytes, as follows: (i) BMMs from wild-type C57BL6 mice were purified by flushing the bone marrow from the femur and tibia as previously described (Levaot, N., Simoncic, P. D., Dimitriou, I.D., Scoffer, A., La Rose, J., Ng, A. H. M. et al. (2011) J. Clin. Invest. 121, 3244-3257). The cells were treated with ACK red cells lysis buffer (ThermoFisher Scientific, USA) and grown in complete α-MEM growth medium (Sigma-Aldrich, USA) containing 10% fetal bovine serum (FBS) (selected to not contain LPS to prevent macrophage differentiation), penicillin, streptomycin and L-glutamine. Recombinant murine M-CSF was added at a concentration of 40 ng/ml (Peprotech, Israel) for three days at 37° C. to induce adhesion and proliferation of monocytes. Then, 7×10^5 cells were transferred into a 6-well plate with complete α-MEM and 20 ng/ml murine M-CSF and RANKL (R&D Systems, USA) for 48 h. (ii) CD 14^+ monocytes (Lonza, Switzerland) were grown in complete α-MEM medium for five days in the presence of human M-CSF (20 ng/mL). Then, 3.5×10^5 cells were transferred to a 24-well plate with complete α-MEM medium, […] human M-CSF (R&D Systems, USA) and 20 ng/ml murine RANKL for 72 h. At this point, the medium was replaced with a starvation medium (α-MEM without FBS) for 4 h. After starvation, the cells were washed with PBS and incubated in a starvation medium containing 0.5 nM murine (BMMs) or human (CD14+) M-CSF and 100 nM (CD14^+ cells) or 1 μM (BMMs) of either M-CSFC31S or M-CSFC31S,M27R for 1 min. To test the phosphorylation levels in the absence of murine M-CSFWT, we incubated 0.5, 5, 10, 50, 1000 and 5000 nM of M-CSFC31S or M-CSFC31S,M27R and 0.5,5.10 nM of human M-CSFWT with the cells. The positive control contained 0.5 nM murine (BMMs) or human (CD14^+) M-CSF, and the negative control was incubated in starvation medium without any added protein. The cells were transferred to ice, and lysis buffer (deoxycholate 0.5%, […], 10 mM NaPO4, 1 mM sodium orthovanadate, 5 mM EDTA, pH 7.4, 5 mM EGTA, pH 7.4, 100 mM NaCl, 2% Triton X-100) was added. […] The images were quantified using ImageJ. The quantified intensity values of the phosphorylated c-FMS for each sample were divided by the total c-FMS intensity, and then by the β-actin expression intensity. […]
To determine whether M-CSFC31S,M27R binds and also antagonizes c-FMS, the phosphorylation of the receptor following incubation with different M-CSF variants was evaluated. […] The cells were lysed, and the expression and phosphorylation levels of c-FMS were evaluated using western blot. C-FMS phosphorylation level was quantified and normalized. […]

Row | c-FMS phosphorylation level (BMMs) | peak concentration of bell-shaped c-FMS phosphorylation curve (BMMs, 1 minute, without murine M-CSF) | Molecule | c-FMS phosphorylation (agonist activity) (0.5-5000 nM without murine M-CSF)
1 | increased levels of phosphorylation | – | M-CSFM: 158 amino acid M-CSF with cysteine at position 31 replaced by serine (SEQ ID NO: 2) (protein) EEVSEYCSHMIGSGHLQSLQRLIDSQMETSSQITFEFVDQEQLKDPVCYLKKAFLLVQDIMEDTMRFRDNTPNAIAIVQLQELSLRLKSCFTKDYEEHDKACVRTFYETPLQLLEKVKNVFNETKNLLDKDWNIFSKNCNNSFAECSSQGHERQSEGS | –
2 | – | 5 nM | M-CSFWT: wild-type human M-CSF, disulfide-bond-linked homodimer which binds and activates c-FMS (protein) EEVSEYCSHMIGSGHLQSLQRLIDSQMETSCQITFEFVDQEQLKDPVCYLKKAFLLVQDIMEDTMRFRDNTPNAIAIVQLQELSLRLKSCFTKDYEEHDKACVRTFYETPLQLLEKVKNVFNETKNLLDKDWNIFSKNCNNSFAECSSQGHERQSEGS | –
3 | lower levels of phosphorylated c-FMS | – | M-CSFC31S,M27R: M-CSF double mutant containing both C31S and M27R; monomeric, monospecific c-FMS antagonist (protein) EEVSEYCSHMIGSGHLQSLQRLIDSQRETSSQITFEFVDQEQLKDPVCYLKKAFLLVQDIMEDTMRFRDNTPNAIAIVQLQELSLRLKSCFTKDYEEHDKACVRTFYETPLQLLEKVKNVFNETKNLLDKDWNIFSKNCNNSFAECSSQGHERQSEGS | very limited c-FMS phosphorylation at any concentration other than 5 μM; also recorded: did not exhibit phosphorylation capabilities in concentrations lower than 5 μM

— patent US11976099B2, “Compositions and methods for treatment of bone associated diseases” (THE NATIONAL INSTITUTE FOR BIOTECHNOLOGY IN THE NEGEV LTD., priority 2016, dated 2024)
